Positions count from the first letter of the chain named.
Key:
[1] = system: P. aeruginosa strains (PAO1, 33356, 6294, 6077, 6206, PA103A); assay: Acute pneumonia model in mice, survival; format: in vivo, Pseudomonas aeruginosa; details: for protection in vivo: strain 6077 (1×10^6 CFU/animal) intranasal, mAbs IP 24 hours prior, 11A6, 3G5, V2L7 5 or 1 mg/kg, 29D2 and V2L2 25 mg/kg, FIG. 13E-G
Protocol: (§1) Antibodies or PBS were administered 24 hours before infection in each model. P. aeruginosa acute pneumonia, keratitis, and thermal injury infection models were performed as described (DiGiandomenico, A., et al., Proc Natl Acad Sci USA 104, 4624-4629 (2007)), with modifications. In the acute pneumonia model, BALB/c mice (The Jackson Laboratory) were infected with P. aeruginosa strains suspended in a 0.05 ml inoculum. In the thermal injury model, CF-1 mice (Charles River) received a 10% total body surface area burn with a metal brand heated to 92° C. for 10 seconds. Animals were infected subcutaneously with P. aeruginosa strain 6077 at the indicated dose. For organ burden experiments, acute pneumonia was induced in mice followed by harvesting of lungs, spleens, and kidneys 24 hours post-infection for determination of CFU.
The in vivo effect of administration of an anti-PcrV antibodies was studied in mice using an acute pneumonia model. Groups of mice were treated with either increasing concentrations of the V2L2 antibody, a positive control anti-PcrV antibody (mAb166), or a negative control (R347), as shown in FIG. 13 (A-B). Groups of mice were also treated with either increasing concentrations of the V2L2 antibody, the PcrV antibody PcrV-02, or a negative control (R347), as shown in FIG. 13 (C-D). Twenty-four hours after treatment, all mice were infected with 5×10^7 CFU (C) Pseudomonas aeruginosa 6294 (06) or (D) PA103A (O11).
Groups of mice were treated with either increasing concentrations of the 11A6, 3G5 or V2L7, the same concentrations of 29D2, 1F3, 1E6, V2L2, LE10, SH3, 4A8, 2H3, or 21F1, increasing concentrations of the 29D2, increasing concentrations of the V2L2, the PcrV antibody PcrV-02, or a negative control (R347), as shown in FIG. 13 (E-H). Mice were injected intraperitoneally (IP) with mAbs 24 hours prior to intranasal infection with Pseudomonas strain 6077 (1×10^6 CFU/animal).

[2] = system: P. aeruginosa (6077 exoU+; 6206) lysis of rabbit red blood cells; assay: Rabbit red blood cell (RBC) lysis inhibition assay; format: cell-based, Pseudomonas aeruginosa; details: for prevention of RBC lysis: strain 6077, FIG. 12D-E
Protocol: Percent inhibition of cytotoxicity analysis was analysed for the parental V2L2 mAb, mAb166 (positive control) and R347 (negative control), where the antibodies were administered to cultured broncho-epithelial cell line A549 combined with log-phase P. aeruginosa strain 6077 (exoU+) at a MOI of approximately 10. A549 lysis was assayed by measuring released lactate dehydrogenase (LDH) activity and lysis in the presence of mAbs was compared to wells without mAb to determine percent inhibition. The V2L2 mAb, mAb166 (positive control) and R347 (negative control) were evaluated for their ability to prevent lysis of RBCs, where the antibodies were mixed with log-phase P. aeruginosa 6077 (exoU^+) and washed rabbit red blood cells (RBCs) and incubated for 2 hours at 37°. Intact RBCs were pelleted and the extent of lysis determined by measuring the OD405 of the cell-free supernatant. Lysis in the presence of anti-PcrV mAbs was compared to wells without mAb to determine percent inhibition. The positive control antibody, mAb166, is a previously characterized anti-PcrV antibody (J Infect Dis. 186: 64-73 (2002), Crit Care Med. 40: 2320-2326 (2012)).

[3] = system: P. aeruginosa strains (PAO1, 33356, 6294, 6077, 6206); assay: Acute pneumonia model in mice, organ burden (CFU in lung, spleen, kidneys); format: in vivo, Pseudomonas aeruginosa
Protocol: as §1
Organ burden of Pseudomonas-infected mice was also studied in response to administration of V2L2. FIG. 14 (A) Mice were treated with either 1 mg/kg R347 (control), or 1 mg/kg, 0.2 mg/kg, or 0.07 mg/kg of V2L2 and then were infected intranasally with 1.2×10^6 cfu of Pseudomonas 6206. FIG. 14 (B) Mice were also treated with either 15 mg/kg R347 (negative control); 15.0 mg/kg, 5.0 mg/kg, or 1.0 mg/kg mAb166 (positive control); or 5.0 mg/kg, 1.0 mg/kg, or 0.2 mg/kg V2L2 and then were infected intranasally with 5.5×10^6 cfu of Pseudomonas 6206.
The in vivo effect of combination administration of anti-Psl and anti-PcrV binding domains was further studied in mice using the antibodies V2L2 and WapR-004 (RAD). Groups of mice were treated with R347 (2.1 mg/kg—negative control), V2L2 (0.1 mg/kg), W4-RAD (0.5 mg/kg), or V2L2/W4 combination (either 0.1, 0.5, 1.0 or 2.0 mg/kg each). Twenty-four hours post-administration of antibody, all mice were infected with an inoculum containing 5.25×10^5 cfu 6206 (O11-ExoU+). Twenty-four hours post infection, lungs, spleens, and kidneys were harvested, homogenized, and plated for colony forming unit (CFU) identification per gram of tissue.

[4] = system: P. aeruginosa strains 6206 and 6294; assay: Acute pneumonia model in mice, histological examination of lung tissue; format: in vivo, Pseudomonas aeruginosa
[5] = system: luminescent P. aeruginosa serogroup 05 strain (PAO1.lux); assay: Opsonophagocytic killing (OPK) assay, PAO1.lux; format: cell-based, Pseudomonas aeruginosa; details: FIG. 11 A-Q
Protocol: This example describes the evaluation of prioritized human IgG1 antibodies to promote OPK of P. aeruginosa. […] OPK assays were performed as described in (DiGiandomenico, A., et al., Infect Immun 72, 7012-7021 (2004)), with modifications. Briefly, assays were performed in 96-well plates using 0.025 ml of each OPK component; P. aeruginosa strains; diluted baby rabbit serum; differentiated HL-60 cells; and monoclonal antibody. In some OPK assays, luminescent P. aeruginosa strains, which were constructed as described (Choi, K. H., et al., Nat Methods 2, 443-448 (2005)), were used. Luminescent OPK assays were performed as described above but with determination of relative luciferase units (RLUs) using a Perkin Elmer ENVISION Multilabel plate reader (Perkin Elmer).

[6] = strain 6206 intranasal, V2L2 0.07-5 mg/kg, FIG. 14A-B
[7] = Table 5, 6206 5.25×10^5 cfu, R347 2.1 mg/kg, V2L2 0.1 mg/kg, WapR-004 0.5 mg/kg
[8] = Table 6A, strain 6294 1.33×10^7 CFU, 0.2 mg/kg (combination 0.1 mg/kg ea)
[9] = Table 6B, strain 6294 1.7×10^7 CFU, 0.2 mg/kg (combination 0.1 mg/kg ea)
[10] = Table 7, strain 6206 9.25×10^5 CFU, 0.2 mg/kg (combination 0.1 mg/kg ea)

B1: 29D2: anti-PcrV mAb, epitope class 3 (antibody, V domains shown)
VH: EVQLLESGGGLVQPGGSLRLSCAASGFTFSSYAMSWVRQAPGKGLEWVSAISGSGYSTYYADSVKGRFTMSRDNSKNTLYLQMNSLRAEDTAVYYCAAEYSISSNYYYGMDVWGQGTTVTVSS
VL: DIQLTQSPSFLSASVGDRVTITCWASQGISSYLAWYQQKPGKAPKLLIYAASTLQSGVPSRFSGSGSGTEFTLTISSLQPEDFATYYCQQLNSSPLTFGGGTKVEIK
modifications: 29D2 VH; 29D2 VL
With B1 the protection in vivo [1] was “provides protection in vivo” and the “prevention of RBC lysis” value [2] was “demonstrated prevention of RBC lysis”.

B2: V2L2: anti-PcrV monoclonal antibody; VH SEQ ID NO:216, VL SEQ ID NO:217 (antibody, V domains shown)
VH: EMQLLESGGGLVQPGGSLRLSCAASGFTFSSYAMNWVRQAPGEGLEWVSAITISGITAYYTDSVKGRFTISRDNSKNTLYLQMNSLRAGDTAVYYCAKEEFLPGTHYYYGMDVWGQGTTVTVSS
VL: AIQMTQSPSSLSASVGDRVTITCRASQGIRNDLGWYQQKPGKAPKLVIYSASTLQSGVPSRFSGSGSGTDFTLSISSLQPDDFATYYCLQDYNYPWTFGQGTKVEIK
modifications: V2L2 VH; V2L2 VL
For B2, the survival ([1]; 6206, Bs3-V2L2 0.28 mg/kg, V2L2 0.2 mg/kg, monitored 120 hours, FIG. 21A) was “survived”, the “protection against additional strains” value ([1]; 6294 and PA103A, 0.04-5 mg/kg, FIG. 13I) was “protects against additional Pseudomonas strains (i.e., 6294 and PA103A)” and the survival ([1]; increasing concentrations 24 hours before infection, strains 6077, 6294, PA103A, FIG. 13A-D) was “dose-dependent effect on improved survival even out to 168 hours post-infection”. For the same molecule, the “protection compared to mAb166” value ([1]; similar doses, strains 6077 and 6294, FIG. 13A-B) was “significantly more potent protection than mAb166 at similar doses”, the protection in vivo [1] was “provides protection in vivo” and the organ burden ([3]; 6206 (O11-ExoU+) 5.25×10^5 cfu, V2L2 0.1 mg/kg, W4-RAD 0.5 mg/kg, FIG. 15) was “effective in lowering organ burden”. For the same molecule, the “reduction in organ CFU compared to mAb166” value ([3]; strain 6206, similar doses, FIG. 14B) was “significantly greater reduction in organ CFU than mAb166 at similar doses”, the “clearance in the kidney” value [3, 6] was “little effect on clearance in the kidney” and the “dissemination to lung and spleen” value [3, 6] was “greatly reduced dissemination to both the lung and spleen in a dose-dependent manner”. For the same molecule, the “Inflammatory Infiltrate” value [4, 7] was “PMN 3+”, the “Involved Lung Surface Area” value [4, 7] was 55% and the “Overall Impression” value [4, 7] was “Broncho interstitial pneumonia”. For the same molecule, the “Overall Impression” value ([4]; Table 6A, BALB/c mice, strain 6294 1.33×10^7 CFU, 0.2 mg/kg (combination 0.1 mg/kg ea)) was “Broncho interstitial pneumonia”, the Bacteria [4, 8] was “Neg-1+” and the “Hemorrhage (extent)” value [4, 8] was “Extensive”. The “Inflammatory Infiltrate” value [4, 8] was “PMN 3+”, the “Involved Lung Surface Area” value [4, 8] was “(57%), mild epithelial injury,” and the “Overall Impression” value ([4]; Table 6B, BALB/c mice, strain 6294 1.7×10^7 CFU, 0.2 mg/kg (combination 0.1 mg/kg ea)) was “Broncho interstitial pneumonia”. For the same molecule, the Bacteria [4, 9] was “Neg”, the “Inflammatory Infiltrate” value [4, 9] was “PMN 2+” and the “Involved Lung Surface Area” value [4, 9] was “(30%), mild epithelial injury,”. For the same molecule, the “Overall Impression” value ([4]; Table 7, BALB/c mice, strain 6206 9.25×10^5 CFU, 0.2 mg/kg (combination 0.1 mg/kg ea)) was “Broncho interstitial pneumonia”, the “Inflammatory Infiltrate” value [4, 10] was “PMN 2-3+” and the “Involved Lung Surface Area” value [4, 10] was “(40%), mild epithelial injury,”. The “potency in prevention of RBC lysis, V2L2 vs 29D2” value ([2]; FIG. 12F) was “more potent in prevention of RBC lysis than the 29D2”.

B3: V2L2-GL: V2L2-germlined mAb (antibody, V domains shown)
VH: B2 VH with M2V, E43K, G89E
VL: B2 VL
modifications: V2L2-GL VH; V2L2-MD and V2L2-GL VL
notes: V2L2-germlined mAb
In the case of B3, the “prevention of RBC lysis” value [2] is reported as “demonstrated prevention of RBC lysis”.

B4: Psl0225: lead optimized anti-Psl clone; VH SEQ ID NO:290, VL SEQ ID NO:291 (antibody, V domains shown)
VH: QVQLQESGPGLVKPSETLSLTCTVSGGSISPYYWTWIRQPPGKGLELIGYIHSSGYTDYNPSLKSRVTISGDTSKKQFSLKLSSVTAADTAVYYCARAMDIEPHALDIWGQGTMVTVSS
VL: DIQLTQSPSSLSASVGDRVTITCRASQSIRSHLNWYQQKPGKAPKLLIYGASNLQSGVPSRFSGSGSGTDFTLTISSLQPEDFATYYCQQSDDGFPNFGGGTKVEIK
modifications: Psl0225-Germline VH; Psl0225-Germline VL
In the case of B4, the “OPK activity of lead optimized anti-Psl mAbs” value (“OPK activity” below) [5] is reported as “enhanced OPK activity”.

B5: Psl0337: lead optimized anti-Psl clone; VH SEQ ID NO:295, VL SEQ ID NO:296 (antibody, V domains shown)
VH: B4 VH with M99D, D100W, I101D, E102H, P103K
VL: B4 VL with Q90D, D92S, D93S, G94W, F95P, P96L, N97T
modifications: Psl0337-Germline VH; Psl0337-Germline VL
For B5, the “OPK activity” value [5] was “enhanced OPK activity”.

B6: Psl0588: lead optimized anti-Psl clone; VH SEQ ID NO:292, VL SEQ ID NO:293 (antibody, V domains shown)
VH: B4 VH with M99D, I101P, E102F, H104G, A105Y
VL: B4 VL with D93T, G94F, F95P, P96L, N97K
modifications: Psl0588-Germline VH
For B6, the “OPK activity” value [5] was “enhanced OPK activity”.
